Starred links: 1 amine or outer side, 2 acyl side, 3 side chain; linkers in the order of their positions; H or OH if unused. Positions of bridges follow the written chain, without caps; N, C: chain ends. Non-standard residues stand in square brackets, D forms with d. Primed or numbered codes have the meaning given here. No end group written: not given here. *: point of attachment. E(PEG8Me) = (S)-30-amino-27-oxo-2,5,8,11,14,17,20,23-octaoxa-26-azahentriacontane-31-oic acid, COCCOCCOCCOCCOCCOCCOCCOCCNC(=O)CC[C@H](N[*:1])C(=O)[*:2]; Phe(4-OMe)(3) = (S)-2-amino-3-(4-methoxyphenyl)propanoic acid (source code F4OMe), COc1ccc(C[C@H](N[*:1])C(=O)[*:2])cc1; F4aao = (S)-2-amino-3-(4-(carboxymethoxy)phenyl)propanoic acid, O=C([C@H](Cc1ccc(OCC(=O)[*:3])cc1)N[*:1])[*:2]; Phe(4-OMe) = F4OMe = (S)-2-amino-3-(4-methoxyphenyl)propanoic acid, COc1ccc(C[C@H](N[*:1])C(=O)[*:2])cc1; Trp(1-CH2CO) = O=C([C@H](Cc1cn(CC(=O)[*:3])c2ccccc12)N[*:1])[*:2]; Phe(3-COOH) = N[C@@H](Cc1cccc(C(=O)O)c1)C(=O)O; Trp(7-aza) = N[C@@H](Cc1c[nH]c2ncccc12)C(=O)O; NH(CH2CH2O)8Me = COCCOCCOCCOCCOCCOCCOCCOCCN*; NMePhe(3-Cl) = CN[C@@H](Cc1cccc(Cl)c1)C(=O)O; 3Pal(6-NH2) = Nc1ccc(C[C@H](N)C(=O)O)cn1; NMe3Pal = CN[C@@H](Cc1cccnc1)C(=O)O; NMe4Pal = CN[C@@H](Cc1ccncc1)C(=O)O; NMeY = CN[C@@H](Cc1ccc(O)cc1)C(=O)O; 3Pal = N[C@@H](Cc1cccnc1)C(=O)O; 4Pal = N[C@@H](Cc1ccncc1)C(=O)O
Target: T1, human transferrin receptor (hTfR) (human, UniProt P02786 89-760)
T1 construct: used as 0.5 uM hTfR dimer solution, immobilised on an NTA sensor chip (Ni capture plus EDC/NHS coupling); also called human TfR; TfR1
T1 sequence (P02786 89-760 limits assumed): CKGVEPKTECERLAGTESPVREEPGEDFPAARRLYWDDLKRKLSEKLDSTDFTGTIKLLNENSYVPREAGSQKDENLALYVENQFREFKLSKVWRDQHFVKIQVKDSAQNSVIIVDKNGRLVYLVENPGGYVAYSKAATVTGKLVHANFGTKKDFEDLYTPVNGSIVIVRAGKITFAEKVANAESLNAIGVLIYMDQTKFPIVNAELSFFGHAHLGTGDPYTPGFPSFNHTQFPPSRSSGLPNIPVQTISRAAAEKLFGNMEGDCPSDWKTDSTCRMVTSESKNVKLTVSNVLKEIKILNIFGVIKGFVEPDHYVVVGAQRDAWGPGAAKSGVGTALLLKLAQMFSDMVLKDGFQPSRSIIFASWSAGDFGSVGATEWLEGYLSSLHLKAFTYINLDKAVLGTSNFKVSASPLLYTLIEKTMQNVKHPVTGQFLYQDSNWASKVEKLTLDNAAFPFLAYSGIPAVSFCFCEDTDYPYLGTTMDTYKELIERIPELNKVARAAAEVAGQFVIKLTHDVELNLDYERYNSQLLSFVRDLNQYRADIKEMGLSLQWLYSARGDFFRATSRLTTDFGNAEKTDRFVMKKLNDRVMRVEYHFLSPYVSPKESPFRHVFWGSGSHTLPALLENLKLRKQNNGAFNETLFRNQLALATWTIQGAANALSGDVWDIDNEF
Assay: SPR; B = KD 1-100 nM
Method: NTA sensor chip (Global Life Sciences Technologies Japan K.K.) was inserted into BiacoreT200 (Global Life Sciences Technologies Japan K.K.), then the priming operation was performed three times by using running buffer containing: 10 mM HEPES pH 8.0 (Nacalai Tesque, Inc.), 150 mM NaCl (Nacalai Tesque, Inc.), 0.05% Tween 20 (Nacalai Tesque, Inc.), 0.1% BSA (SIGMA-ALDRICH) and 1.0% DMSO (FUJIFILM Wako Pure Chemical Corporation), and equilibrated at a flow rate of 30 μL/min. 350 mM EDTA solution was reacted at a flow rate of 10 μL/min for 60 seconds, 0.5 mM […] solution (Kishida Chemical Co., Ltd.) was reacted at a flow rate of 10 μL/min for 60 seconds, and then the NTA sensor chip was washed with 3 mM EDTA solution (Nacalai Tesque, Inc.) at a flow rate of 10 μL/min for 60 seconds. After mixing 50 μL each of 60 mM EDC solution (Global Life Science Technologies Japan K.K.) and 650 mM NHS solution (Global Life Science Technologies Japan K.K.), the reaction was carried out at a flow rate of 10 μL/min for 420 seconds. 150 μL of 0.5 μM hTfR dimer solution was prepared by dilution with running buffer and reacted at a flow rate of 10 μL/min for 300 seconds to immobilize hTfR on the NTA sensor chip. For the human transferrin receptor (hTfR), recombinant hTfR described in Example 2 of WO2018/124121 was used. After immobilization, capping was performed by reacting with 1.0 M ethanolamine solution (Global Life Sciences Technologies Japan K.K.) at a flow rate of 10 μL/min for 420 seconds. Peptide lysate prepared in DMSO solution to 10 mM was diluted with running buffer to be a final concentration of 10 μM peptide lysate, then peptide solutions of 100 nM, 50 nM, 25 nM, 10 nM, and 5 nM were prepared. Using the above samples, the kinetics of the peptide against hTfR was obtained by SPR measurement.
The kinetic evaluation model was single-cycle kinetics, and curve fitting was performed using Biacore T200 Evaluation Software Version 3.0 (Global Life Science Technologies Japan K.K.). The binding of the peptide to hTfR was evaluated by performing curve fitting on the obtained sensorgram by least squares method and obtaining the KD value.

B1: 894_0323 (peptide)
peptide: Ac-AV[NMe4Pal]VWN[3Pal(6-NH2)][Phe(4-OMe)(3)]IIRRF[NMeY]C
modifications: thioether (positions not given here); not fully specified (C-terminus, bridges)
With B1 as the binder, how does the KD read?
The KD was 1 to 100 nM.

B2: 894_0343 (peptide)
peptide: Ac-AV[NMePhe(3-Cl)]V[Trp(1-CH2CO)]NY[F4aao]IIRR[4Pal][NMeY]C
modifications: thioether (positions not given here); not fully specified (C-terminus, bridges)
Which KD does the source give for B2 here?
The KD was 1 to 100 nM.

B3: 894_0350 (peptide)
peptide: Ac-AV[NMePhe(3-Cl)]V[Trp(1-CH2CO)]NY[F4aao]IIRE(NH(CH2CH2O)8Me)[4Pal][NMeY]C
modifications: thioether (positions not given here); not fully specified (C-terminus, bridges)
B3 was tested. Which KD did it give?
Its KD is 1 to 100 nM.

B4: 894_0351 (peptide)
peptide: {CH2CO}-AV[NMePhe(3-Cl)]V[Trp(1-CH2CO)]NY[3Pal]IIRE(NH(CH2CH2O)8Me)[4Pal][NMeY]C-NH2
modifications: thioether N-15; also: linker PEG4c
Which KD does the source give for B4 here?
Its KD is 1 to 100 nM.

B5: 894_0347 (peptide)
peptide: Ac-AV[NMePhe(3-Cl)]V[Trp(1-CH2CO)]N[3Pal(6-NH2)][3Pal]IIRR[Phe(3-COOH)][NMeY]C
modifications: thioether (positions not given here); not fully specified (C-terminus, bridges)
For B5, which KD is on record?
Its KD is 1 to 100 nM.

B6: 894_0345 (peptide)
peptide: Ac-AV[NMePhe(3-Cl)]V[Trp(1-CH2CO)]NY[Phe(4-OMe)(3)]IIR[E(PEG8Me)][4Pal][NMeY]C
modifications: thioether (positions not given here); not fully specified (C-terminus, bridges)
B6 was tested. Which KD did it give?
Its KD is 1 to 100 nM.

B7: 894_0369 (peptide)
peptide: {CH2CO}-AV[NMePhe(3-Cl)]VWN[3Pal(6-NH2)][F4aao]IIRR[4Pal][NMeY]C-NH2
modifications: thioether N-15; also: linker PEG4c
With B7 as the binder, how does the KD read?
Its KD is 1 to 100 nM.

B8: 894_0337 (peptide)
peptide: Ac-AV[NMePhe(3-Cl)]V[Trp(1-CH2CO)]N[3Pal(6-NH2)][F4aao]IIRRF[NMeY]C
modifications: thioether (positions not given here); not fully specified (C-terminus, bridges)
B8 was tested. Which KD did it give?
Its KD is 1 to 100 nM.

B9: 894_0334 (peptide)
peptide: Ac-AV[NMePhe(3-Cl)]V[Trp(1-CH2CO)]NY[Phe(4-OMe)(3)]IIR[E(PEG8Me)]F[NMeY]C
modifications: thioether (positions not given here); not fully specified (C-terminus, bridges)
With B9 as the binder, how does the KD read?
Its KD is 1 to 100 nM.

B10: 894_0365 (peptide)
peptide: {CH2CO}-AV[NMePhe(3-Cl)]VWNY[Phe(4-OMe)]IIRE(NH(CH2CH2O)8Me)[Phe(3-COOH)][NMeY]C-NH2
modifications: thioether N-15; also: linker PEG4c
With B10 as the binder, how does the KD read?
The KD was 1 to 100 nM.

B11: 894_0368 (peptide)
peptide: {CH2CO}-AV[NMePhe(3-Cl)]VWN[3Pal(6-NH2)][F4aao]IIRR[Phe(3-COOH)][NMeY]C
modifications: thioether N-15; not fully specified (C-terminus)
B11 was tested. Which KD did it give?
The KD was 1 to 100 nM.

B12: 894_0339 (peptide)
peptide: Ac-AV[NMePhe(3-Cl)]V[Trp(1-CH2CO)]N[3Pal(6-NH2)][Phe(4-OMe)(3)]IIRR[Phe(3-COOH)][NMeY]C
modifications: thioether (positions not given here); not fully specified (C-terminus, bridges)
Which KD does the source give for B12 here?
Its KD is 1 to 100 nM.

B13: 894_0348 (peptide)
peptide: Ac-AV[NMePhe(3-Cl)]V[Trp(1-CH2CO)]N[3Pal(6-NH2)][F4aao]IIRR[4Pal][NMeY]C
modifications: thioether (positions not given here); not fully specified (C-terminus, bridges)
With B13 as the binder, how does the KD read?
The KD was 1 to 100 nM.

B14: 894_0324 (peptide)
peptide: Ac-AV[NMePhe(3-Cl)]V[Trp(7-aza)]NY[Phe(4-OMe)(3)]IIRR[4Pal][NMeY]C
modifications: thioether (positions not given here); not fully specified (C-terminus, bridges)
How did the KD turn out when B14 was run?
Its KD is 1 to 100 nM.

B15: 894_0352 (peptide)
peptide: {CH2CO}-AV[NMePhe(3-Cl)]V[Trp(1-CH2CO)]NY[3Pal]IIRE(NH(CH2CH2O)8Me)[Phe(3-COOH)][NMeY]C-NH2
modifications: thioether N-15; also: linker PEG4c
For B15, which KD is on record?
Its KD is 1 to 100 nM.

B16: 894_0349 (peptide)
peptide: Ac-AV[NMePhe(3-Cl)]V[Trp(1-CH2CO)]N[3Pal(6-NH2)][F4aao]IIRR[Phe(3-COOH)][NMeY]C
modifications: thioether (positions not given here); not fully specified (C-terminus, bridges)
How did the KD turn out when B16 was run?
Its KD is 1 to 100 nM.

B17: 894_0341 (peptide)
peptide: Ac-AV[NMePhe(3-Cl)]V[Trp(1-CH2CO)]NY[3Pal]IIRR[Phe(3-COOH)][NMeY]C
modifications: thioether (positions not given here); not fully specified (C-terminus, bridges)
B17 was tested. Which KD did it give?
The KD was 1 to 100 nM.

B18: 894_0371 (peptide)
peptide: {CH2CO}-AV[NMePhe(3-Cl)]VWNY[3Pal]IIRE(NH(CH2CH2O)8Me)[4Pal][NMeY]C-NH2
modifications: thioether N-15; also: linker PEG4c
Which KD does the source give for B18 here?
Its KD is 1 to 100 nM.

B19: 894_0340 (peptide)
peptide: Ac-AV[NMePhe(3-Cl)]V[Trp(1-CH2CO)]NY[3Pal]IIR[E(PEG8Me)]F[NMeY]C
modifications: thioether (positions not given here); not fully specified (C-terminus, bridges)
B19 was tested. Which KD did it give?
The KD was 1 to 100 nM.

B20: 894_0370 (peptide)
peptide: {CH2CO}-AV[NMePhe(3-Cl)]VWNY[3Pal]IIRE(NH(CH2CH2O)8Me)[Phe(3-COOH)][NMeY]C-NH2
modifications: thioether N-15; also: linker PEG4c
Which KD does the source give for B20 here?
Its KD is 1 to 100 nM.

B21: 894_0344 (peptide)
peptide: Ac-AV[NMePhe(3-Cl)]V[Trp(1-CH2CO)]NY[Phe(4-OMe)(3)]IIR[E(PEG8Me)][Phe(3-COOH)][NMeY]C
modifications: thioether (positions not given here); not fully specified (C-terminus, bridges)
Which KD does the source give for B21 here?
The KD was 1 to 100 nM.

B22: 894_0362 (peptide)
peptide: {CH2CO}-AV[NMePhe(3-Cl)]VWNY[F4aao]IIRE(NH(CH2CH2O)8Me)F[NMeY]C
modifications: thioether N-15; not fully specified (C-terminus)
How did the KD turn out when B22 was run?
The KD was 1 to 100 nM.

B23: 894_0325 (peptide)
peptide: Ac-AV[NMePhe(3-Cl)]VWNY[Phe(4-OMe)(3)]IIRR[4Pal][NMe3Pal]C
modifications: thioether (positions not given here); not fully specified (C-terminus, bridges)
For B23, which KD is on record?
Its KD is 1 to 100 nM.

— patent publication US20260116920A1 (PEPTIDREAM, published 2026)
